The values that follow come from patent US9358302.

The target in the experiment is GBSIII-OVAp (GBSIII conjugated to OVAp19). The experiment is described as follows: cell-based or functional assay.

“T-cell receptor of DO11.10 transgenic mice that recognizes OVA peptide 323-339 in the context of MHC class II (I-A^d) (TCR)” returned a T cell proliferation, stimulation index (SI), 10 µg GBSIII-OVAp of 53.6 SI and a fold decrease in T cell proliferation against OVAp of the same amount of 60 fold.
